Test [1] deals with IL13RA2 on tumor cell lines (U251MG.Luc, U87MG.Luc, U87MG.Luc clone2, U138MG.Luc, A375.Luc) (UniProt Q14627). Put plainly: cell-based or functional assay.
The target of test [2] is T1, Recombinant IL13RA2-His protein (Sino Biological, Cat #10350-H08H) (human, UniProt Q14627 27-343).
T1 construct: Bought protein; also called human IL13RA2 his-tag protein; IL13AR2; not shown: His tag
T1 sequence (looked up): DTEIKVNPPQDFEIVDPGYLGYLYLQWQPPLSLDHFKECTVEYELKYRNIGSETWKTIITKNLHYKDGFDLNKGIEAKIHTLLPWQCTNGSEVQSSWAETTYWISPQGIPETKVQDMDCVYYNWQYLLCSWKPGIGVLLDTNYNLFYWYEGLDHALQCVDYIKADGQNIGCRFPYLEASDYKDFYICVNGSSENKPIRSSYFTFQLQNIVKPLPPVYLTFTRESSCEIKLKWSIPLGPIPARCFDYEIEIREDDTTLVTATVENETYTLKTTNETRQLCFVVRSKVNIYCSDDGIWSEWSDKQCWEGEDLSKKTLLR
Briefly: SPR, Biacore 2000; VHH-mIgG1Fc coupled to CM5 chip, IL13RA2-His injected; 1:1 Langmuir fit. As to the method: The affinity of each VHH-mIgG1Fc for IL13AR2 was determined by SPR using a BIACORE® 2000 analytical system (GE Healthcare). Briefly, each VHH-mIgG1Fc protein was covalently coupled to a CM5(s) sensor chip using 4 μg/ml VHH-mIgG1Fc. Recombinant IL13RA2-His protein (Sino Biological, Cat #10350-H08H) was serially diluted in running buffer (10 mM HEPES, 150 mM NaCl, 3 mM EDTA, 0.05% Tween-20, pH 7.4) and injected at a flowrate of 10 μl/min followed by dissociation. The association and dissociation rate constants were determined using the BIACORE® 2000 evaluation software version 3.0 (Langmuir binding, local fit, 1:1 binding model).

Test [3] addresses T2, recombinant human IL13RA2 (human, UniProt Q14627 27-343).
T2 construct: Coating antigen of the phage ELISA screen; The immunogen was ACRO Cat. No. IL2-H52H5; also called antigen proteins
T2 sequence (looked up): T1 sequence (looked up)
Put plainly: phage ELISA on plates coated with recombinant human IL13RA2, anti-M13-HRP, A450. Here is the method: Individual output phage clones were grown in 96-deep-well plates and rescued by M13KO7 helper phage overnight. To identify clones that bound to antigen proteins, 96-well ELISA microtiter plates were coated with recombinant human IL13RA2 in coating buffer overnight at 4° C., and the plates were then blocked with blocking buffer. After blocking, approximately 50 µL per well of phage supernatant from overnight cell culture was added to the plates for 1.5-hour incubation at 4° C. The plates were washed four times, and the HRP-conjugated anti-M13 monoclonal antibody was added to the plates for 45-minute incubation at 4° C. The plates were again washed five times and substrate solution was added to the wells for color developing. Absorbance at 450 nm was measured for each well.

Take “IL13-E13Y CAR (from UniProt P35225 35-146)”: in test [1], the IFNγ release level, CAR-T co-cultured with U87MG.Luc (UnT 80) amounted to 580 pg/mL; the IFNγ release level, CAR-T co-cultured with U138MG.Luc (UnT 70) is 252 pg/mL; the IFNγ release level, CAR-T co-cultured with U251MG.Luc (UnT 196) is 4360 pg/mL.

B1: VHH1345-mIgG1Fc (Fc fusion)
chain: AVQLVDSGGGSAQVGGSLKLSCTASGYIFSSCGMGWYRQAPGKKREFVTSVSKYGTTTYPDSVKGRFTISLDNAKNTAYLQMNSLKIEDTAVYYCTTLASRGTTCPASVYSGPGTQVTVSSVPRDCGCKPCICTVPEVSSVFIFPPKPKDVLTITLTPKVTCVVVDISKDDPEVQFSWFVDDVEVHTAQTQPREEQFNSTFRSVSELPIMHQDWLNGKEFKCRVNSAAFPAPIEKTISKTKGRPKAPQVYTIPPPKEQMAKDKVSLTCMITDFFPEDITVEWQWNGQPAENYKNTQPIMNTNGSYFVYSKLNVQKSNWEAGNTFTCSVLHEGLHNHHTEKSLSHSPGK
notes: also called VHH-mIgG1Fc chimeric antibody; single VHH chimeric anti-IL13RA2 antibody
Regarding B1, in test [2], the Kd – broadly, the free concentration of one partner at which half of the binding sites on the other are occupied at equilibrium, for simple one-to-one binding – is 14 nM; the koff (usually the rate constant with which the complex falls apart) stood at 0.00045 s⁻¹; the kon (usually the rate constant with which the complex forms) worked out at 33000 M⁻¹ s⁻¹.

B2: VHH1343 (VHH)
VHH: QVKLEESGGGSVQAGGSLKLSCAASGYNFSKCGMGWFRRALREERELVAEISNDGTTTYDDSVKGRFTISRDNVKNTVYLQMNNLKTEDTAVYYCASRNPCGLLWGQGTQVTVSS
For the molecule B2, the binding result in test [3] is “binds”.

B3: VHH1330-(GGGGS)2-VHH1345-mIgG1Fc (Fc fusion)
chain: QVQLVESGGGLVQPGGSLTLSCAASGYRISLYKMGWFRQDPGKQREGVAAVDRNGRTIYADSVKGRFTIYQDNAKNTLDLQMNSLKPEDTAMYYCAADLWRIGSPASLSPTDYGDWGQGTQVTVSSGGGGSGGGGSAVQLVDSGGGSAQVGGSLKLSCTASGYIFSSCGMGWYRQAPGKKREFVTSVSKYGTTTYPDSVKGRFTISLDNAKNTAYLQMNSLKIEDTAVYYCTTLASRGTTCPASVYSGPGTQVTVSSVPRDCGCKPCICTVPEVSSVFIFPPKPKDVLTITLTPKVTCVVVDISKDDPEVQFSWFVDDVEVHTAQTQPREEQFNSTFRSVSELPIMHQDWLNGKEFKCRVNSAAFPAPIEKTISKTKGRPKAPQVYTIPPPKEQMAKDKVSLTCMITDFFPEDITVEWQWNGQPAENYKNTQPIMNTNGSYFVYSKLNVQKSNWEAGNTFTCSVLHEGLHNHHTEKSLSHSPGK
notes: Two VHH domains joined by (GGGGS)2 and fused to mouse IgG1 Fc; also called bi-VHH-mIgG1Fc; bi-VHH chimeric anti-IL13RA2 antibody
As for B3, in test [2], the Kd was 0.71 nM, the koff was determined as 5.4e-05 s⁻¹ and the kon was 75000 M⁻¹ s⁻¹.

B4: VHH1353 (VHH)
VHH: EVQLVESGGGSVQAGGSLRLSCAASGYTSSTNCMGWFRQAPGKEREGVASIRGTGGSTYYADSVKGRFTISRDDGKNTLYLQMNSLKPEDTAMYYCAAATGTSFSEARCVTAPPYKYPYWGQGTQVTVSS
On to B4, for which, in test [3], the binding result is “binds”.

B5: VHH1354 (VHH)
VHH: AVQLVDSGGGLVQPGGSLRLSCAASGFTFSTYGMSWVRQPPGKGLEWVSGISPGGDHTTYADSVKGRFTISRDNAKNTLYLQLSSLKTEDTAMYYCTTVPGRSRYGNYNPRGQGTQVTVSS
In the case of B5, the binding result in test [3] is on record as “binds”.

B6: VHH1366 (VHH)
VHH: QVKLEESGGGSVEAGGSLKLSCAGFGDMFSSCGMGWYRQAPGKEREMVSRISPRGTSITIDSVRGRFTISRDNAKNTLALEMNSLKIEDTAVYYCAAGGDSASRTPRCRSLNWGQGTQVTVSS
Turning to B6, in test [3], the binding result is listed as “binds”.

B7: VHH2110 (VHH)
VHH: QVKLEESGGGSVQAGGSLRLSCAASGIPTRTLFMGWFRQAPGKEREEVARISDNGNTGYADFVKGRFTISKDNSKNTLYLQMSSLKPDDTAMYYCSARRASYSATVLWGQGTQVTVSS
With B7, the binding result in test [3] is given as “binds”.

B8: VHH1330-mIgG1Fc (Fc fusion)
chain: QVQLVESGGGLVQPGGSLTLSCAASGYRISLYKMGWFRQDPGKQREGVAAVDRNGRTIYADSVKGRFTIYQDNAKNTLDLQMNSLKPEDTAMYYCAADLWRIGSPASLSPTDYGDWGQGTQVTVSSVPRDCGCKPCICTVPEVSSVFIFPPKPKDVLTITLTPKVTCVVVDISKDDPEVQFSWFVDDVEVHTAQTQPREEQFNSTFRSVSELPIMHQDWLNGKEFKCRVNSAAFPAPIEKTISKTKGRPKAPQVYTIPPPKEQMAKDKVSLTCMITDFFPEDITVEWQWNGQPAENYKNTQPIMNTNGSYFVYSKLNVQKSNWEAGNTFTCSVLHEGLHNHHTEKSLSHSPGK
notes: as for B1
For the molecule B8, in test [2], the dissociation constant Kd amounted to 60 nM, the koff was 0.0022 s⁻¹ and the kon was 37000 M⁻¹ s⁻¹.

B9: VHH1339 (VHH)
VHH: EVQLVESGGGSVQAGGSLKLSCAASGDIFSMCGMGWYRQAPGKQREMVSRISPRGTAIYPDSLKGRFTVSRDNAKNTLYLQMNSLNTEDTAVYYCAAGGDSASRTPHCRSLNWGQGTQVTVSS
B9: in test [3], the binding result is “binds”.

The values are drawn from patent US20260151429A1 (NANJING LEGEND BIOTECH, published 2026).
